In patent US20220380734A1, “SYSTEMS AND METHODS FOR LUNG CELL EXPANSION AND DIFFERENTIATION” (DUKE UNIVERSITY, priority 2019, published 2022):

What was measured:
AEC2s [1] = test: AEC2/AEC1 marker immunostaining of mouse organoids (maintenance and differentiation)
Protocol: Serum free medium contained 10 μM SB431542 (Abcam, Cambridge, UK), 3 μM CHIR99021 (Tocris, Bristol, UK), 1 μM BIRB796 (Tocris, Bristol, UK), 5 μg/ml Heparin (Sigma-Aldrich, St. Louis, Mo.), 50 ng/ml human EGF (Gibco), 10 ng/ml mouse FGF10 (R&D systems. Minneapolis, Minn.), 10 μM Y27632 (Selleckchem, Houston, Tex.), Insulin-Transferrin-Selenium (Thermo, Waltham, Mass.), 1% Glutamax (Thermo, Waltham, Mass.), 2% B27 (Thermo, Waltham, Mass.), 1% N2 (Thermo, Waltham, Mass.), 15 mM HEPES (Thermo, Waltham, Mass.), 1.25 mM N-acetylcysteine (Sigma-Aldrich, St. Louis, Mo.) and 1% Anti-Anti (Thermo, Waltham, Mass.) in Advanced DMEM/F12 (Thermo, Waltham, Mass.). For Alveo-Expansion medium, 10 ng/ml mouse IL-1b (BioLegend, San Diego, Calif.), 10 ng/ml mouse TNFa (BioLegend, San Diego, Calif.) were added into serum free medium. For Alveo-Maintenance medium, 10 ng/ml mouse Noggin (Peprotech, Rocky Hill, N.J.) and 1 μM DMH-1 (Tocris, Bristol, UK.) were added into Alveo-Expansion medium. Alveo-Differentiation medium contained ITS, Glutamax, 5 μg/ml Heparin, 5 ng/ml human EGF, 1 μg/ml mouse FGF10, 10% fetal bovine serum and 1% Anti-Anti in Advanced DMEM/F12.
For differentiation, mouse alveolospheres were cultured in AMM medium for 10 days were switched to AT2-differentiation medium followed by culture for an additional 7 days, except where stated otherwise. […]

human alveolospheres = test: Human alveolosphere culture with human IL-1β; type: cell-based; details: three donors, hIL-1β removed at day 7, cultured additional 7-15 days
Protocol: For human alveolosphere culture, HTII-280^+ human AT2s (1-3×10^3) were resuspended in scrum free medium and mixed with an equal amount of Matrigel and plated in 6 well plates. For detailed mouse and human serum-free, feeder-free (SFFF) media composition, see Table 1 and Table 2.
The impact of human IL-1β was also tested in human alveolosphere culture. Human IL-1β was removed from medium containing human alveolospheres from three individual donors at day 7 and cultured for an additional 7-15 days (FIG. 7A).

AEC2s [2] = test: Feeder-free (no fibroblasts) mouse AEC2 organoid culture in serum free medium: CFE and organoid size; type: cell-based

## IL6: interleukin-6, 20 ng/mL supplement of serum-free differentiation medium
AEC2s [1]; mouse AEC2s, 10 days maintenance medium, then serum-free differentiation medium + IL6 20 ng/mL for 10 days
  expression of AEC1 markers including AGER: strong expression

## Human IL-1β: human interleukin-1β tested in human alveolosphere culture
Human alveolospheres
  organoid numbers and the size (growth rate): significantly enhanced

B1: BMP4: BMP4 ligand (protein, UniProt P12644 293-408, looked up)
Bone morphogenetic protein 4: SPKHHSQRARKKNKNCRRHSLYVDFSDVGWNDWIVAPPGYQAFYCHGDCPFPLADHLNSTNHAIVQTLVNSVNSSIPKACCVPTELSAISMLYLDEYDKVVLKNYQEMVVEGCGCR
AEC2s [1]; organoids treated with BMP4 ligand
  complete differentiation of AEC2 to AEC1 cells: not observed

B2: IL1β: mouse interleukin-1β, cytokine added to serum free medium (protein, UniProt P10749 118-269, looked up)
Interleukin-1 beta: VPIRQLHYRLRDEQQKSLVLSDPYELKALHLNGQNINQQVIFSMSFVQGEPSNDKIPVALGLKGKNLYLSCVMKDGTPTLQLESVDPKQYPKKKMEKRFVFNKIEVKSKVEFESAEFPNWYISTSQAEHKPVFLGNNSGQDIIDFTMESVSS
AEC2s [2]; IL1β removed from culture media on day-3, n=2
  CFE: 19.85%
AEC2s [2]; IL1β removed from culture media on day-5, n=3, average±SEM
  CFE: 20.35%±0.30%
AEC2s [2]; IL1β removed from culture media on day-7, n=3, average±SEM
  CFE: 19.33%±0.84%
AEC2s [2]; continuous IL1β supplementation, n=3, average±SEM
  CFE: 20.91%±1.61%
